Sequences and labels used below:
T1: GST-Ets1 fusion protein (UniProt P14921 1-441)
T1 construct: Transcription factor Ets1 fused to GST; the only Ets1 cDNA it names is human ETS1 (pSG5-hEts1); also called purified GST-Ets1 fusion; source: recombinant fusion protein, prepared using glutathione-sepharose resin as previously described [40]; held on the resin
T1 sequence (looked up): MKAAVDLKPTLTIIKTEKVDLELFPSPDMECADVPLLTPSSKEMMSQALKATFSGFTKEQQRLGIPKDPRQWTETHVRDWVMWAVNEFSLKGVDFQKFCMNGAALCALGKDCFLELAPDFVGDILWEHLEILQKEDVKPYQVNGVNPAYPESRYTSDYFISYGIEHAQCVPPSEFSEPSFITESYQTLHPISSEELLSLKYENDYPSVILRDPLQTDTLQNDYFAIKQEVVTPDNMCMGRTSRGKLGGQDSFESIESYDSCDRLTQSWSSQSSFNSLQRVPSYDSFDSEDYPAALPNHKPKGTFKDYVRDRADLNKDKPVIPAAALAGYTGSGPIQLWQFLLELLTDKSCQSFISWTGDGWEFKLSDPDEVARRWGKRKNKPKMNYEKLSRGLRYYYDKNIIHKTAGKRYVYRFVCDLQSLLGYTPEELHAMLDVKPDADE

B1: nuclear receptor coactivator NCOA3 (AIB/SRC3), GreenLys-labeled (natural protein)
chain: not shown
modifications: Fluorotect GreenLys-labeled (fluorescent lysines built in during translation)
notes: plasmid PCR3.1 SRC3/NCOA3 from O'Malley and Smith; source: in vitro translated (TNT coupled transcription-translation reticulocyte lysate, T7 polymerase) from PCR3.1 SRC3/NCOA3
B2: estrogen receptor α (ERα), GreenLys-labeled (receptor, human, UniProt P03372 1-595, looked up)
chain: MTMTLHTKASGMALLHQIQGNELEPLNRPQLKIPLERPLGEVYLDSSKPAVYNYPEGAAYEFNAAAAANAQVYGQTGLPYGPGSEAAAFGSNGLGGFPPLNSVSPSPLMLLHPPPQLSPFLQPHGQQVPYYLENEPSGYTVREAGPPAFYRPNSDNRRQGGRERLASTNDKGSMAMESAKETRYCAVCNDYASGYHYGVWSCEGCKAFFKRSIQGHNDYMCPATNQCTIDKNRRKSCQACRLRKCYEVGMMKGGIRKDRRGGRMLKHKRQRDDGEGRGEVGSAGDMRAANLWPSPLMIKRSKKNSLALSLTADQMVSALLDAEPPILYSEYDPTRPFSEASMMGLLTNLADRELVHMINWAKRVPGFVDLTLHDQVHLLECAWLEILMIGLVWRSMEHPGKLLFAPNLLLDRNQGKCVEGMVEIFDMLLATSSRFRMMNLQGEEFVCLKSIILLNSGVYTFLSSTLKSLEEKDHIHRVLDKITDTLIHLMAKAGLTLQQQHQRLAQLLLILSHIRHMSNKGMEHLYSMKCKNVVPLYDLLLEMLDAHRLHAPTSRGGASVEETDQSHLATAGSTSSHSLQKYYITGEAEGFPATV
modifications: Fluorotect GreenLys-labeled (fluorescent lysines built in during translation)
notes: also called hERα; fluorescently labeled ERα; source: in vitro translated (TNT coupled transcription-translation reticulocyte lysate, T7 polymerase) from pcDNA3.1 ERα
B3: nuclear receptor coactivator NCOA2 (SRC2), GreenLys-labeled (natural protein)
chain: not shown
modifications: Fluorotect GreenLys-labeled (fluorescent lysines built in during translation)
notes: plasmid PCR3.1 SRC2/NCOA2 from O'Malley and Smith; source: in vitro translated (TNT coupled transcription-translation reticulocyte lysate, T7 polymerase) from PCR3.1 SRC2/NCOA2
B4: nuclear receptor coactivator NCOA1 (SRC1), GreenLys-labeled (natural protein)
chain: not shown
modifications: Fluorotect GreenLys-labeled (fluorescent lysines built in during translation)
notes: plasmid PCR3.1 SRC1/NCOA1 from O'Malley and Smith; source: in vitro translated (TNT coupled transcription-translation reticulocyte lysate, T7 polymerase) from PCR3.1 SRC1/NCOA1

For the test, the target named is T1, GST-Ets1 fusion protein. In words: pull-down; GST or GST-Ets1 (4 µg/20 µL glutathione-sepharose resin) in 0.5 mL binding buffer (40 mM HEPES pH 7.5, 100 mM NaCl, 5 mM MgCl2, 0.1 mM EDTA, 0.05% Nonidet P-40, 1 mM DTT); GreenLys-labeled ERα (5 µL) 30 min at 4°C, labeled NCOA (5 µL) a further 2 h, alone or in combination; washed 3 times with 0.1% Triton X-100; SDS-PAGE, fluorescence imaging, percent of input bound. As to conditions: one partner purified.
On to B1, for which the “percent of labeled input bound” value was 26%. To B2 belongs 10%; to B3, 9%; to B4, 27%.

Source of the values: publication PMC3706316, “Transcription Factor Ets1 Cooperates with Estrogen Receptor α to Stimulate Estradiol-Dependent Growth in Breast Cancer Cells and Tumors” (PLoS ONE, 2013).
